Biological target: the molecule itself
Assay: cryo-EM structure

B1: truncated mouse mIgM heavy chain lacking the two Fab arms (of IgM BCRΔFab; vector pMS-RL2b) (receptor)
heavy: AEAAAKEAAAKEAAAKAAVAEMNPNVNVFVPPRDGFSGPAPRKSKLICEATNFTPKPITVSWLKDGKLVESGFTTDPVTIENKGSTPQTYKVISTLTISEIDWLNLNVYTCRVDHRGLTFLKNVSSTCAASPSTDILTFTIPPSFADIFLSKSANLTCLVSNLATYETLNISWASQSGEPLETKIKIMESHPNGTFSAKGVASVCVEDWNNRKEFVCTVTHRDLPSPQKKFISKPNEVHKHPPAVYLLPPAREQLNLRESATVTCLVKGFSPADISVQWLQRGQLLPQEKYVTSAPMPEPGAPGFYFTHSILTVTEEEWNSGETYTCVVGHEALPHLVTERTVDKSTEGEVNAEEEGFENLWTTASTFIVLFLLSLFYSTTVTLFKVK
- binding result: binds

Reference: article PMC10499536 (Nature, 2022)
